# In US20060121489:
# What was measured:
# NF-kB p50 homodimer = NF-kB p50 homodimer (UniProt P19838); settings: quoted in comparison with XBY-6
# [1] = target: NF-kB p65 (RelA) homodimer (UniProt Q04206); test: EMSA; settings: 1:1 stoichiometry of p65 to the 22-mer site
# NF-kB p65 (RelA) homodimer, sequence (Q04206 whole entry): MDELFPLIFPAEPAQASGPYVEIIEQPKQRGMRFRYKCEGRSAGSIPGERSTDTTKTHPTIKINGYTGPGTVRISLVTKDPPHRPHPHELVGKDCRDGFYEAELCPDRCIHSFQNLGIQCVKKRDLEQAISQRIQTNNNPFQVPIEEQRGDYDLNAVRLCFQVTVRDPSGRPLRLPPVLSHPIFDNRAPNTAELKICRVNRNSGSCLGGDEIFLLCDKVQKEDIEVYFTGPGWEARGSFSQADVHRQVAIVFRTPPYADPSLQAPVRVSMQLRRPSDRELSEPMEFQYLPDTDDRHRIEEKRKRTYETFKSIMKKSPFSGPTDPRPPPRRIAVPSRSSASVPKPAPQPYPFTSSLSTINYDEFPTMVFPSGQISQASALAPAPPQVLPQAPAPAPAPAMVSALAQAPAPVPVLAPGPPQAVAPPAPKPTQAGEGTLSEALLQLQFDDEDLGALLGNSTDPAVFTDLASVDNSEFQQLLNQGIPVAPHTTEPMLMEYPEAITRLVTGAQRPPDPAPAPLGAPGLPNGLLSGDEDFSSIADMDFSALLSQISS
# NF-kB p50 homodimer, sequence (P19838 1-433): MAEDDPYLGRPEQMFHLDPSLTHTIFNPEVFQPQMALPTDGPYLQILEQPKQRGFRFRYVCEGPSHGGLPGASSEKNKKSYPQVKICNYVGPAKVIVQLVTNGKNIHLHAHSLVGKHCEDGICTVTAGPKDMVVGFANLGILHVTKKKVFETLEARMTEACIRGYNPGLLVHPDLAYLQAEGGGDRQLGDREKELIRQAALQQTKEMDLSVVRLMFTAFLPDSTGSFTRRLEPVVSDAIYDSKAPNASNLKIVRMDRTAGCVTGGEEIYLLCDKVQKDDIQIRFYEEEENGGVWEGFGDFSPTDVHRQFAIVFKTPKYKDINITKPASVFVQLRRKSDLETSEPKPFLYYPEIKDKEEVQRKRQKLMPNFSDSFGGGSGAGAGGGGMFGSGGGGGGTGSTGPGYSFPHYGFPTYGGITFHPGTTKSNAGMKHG
substance,measurement,setting,value
IgkB promoter element 22-mer,Kd,NF-kB p50 homodimer,4 nM
same,Kd,[1],4 nM
